According to patent publication US20030203372A1, “Analysis method” (priority 2000, published 2003):

Tested on: human macrophages
Test: Custom gene array, macrophages with no cytokines, IL-10 or LPS + IFN, in normoxia and hypoxia
Format: cell-based
Conditions: Table 15, referenced to the median value of that gene throughout all 6 conditions
Description: Macrophages were derived and cultured as described elsewhere in the specification. A total of 6 experimental conditions were analysed, as shown below. Where cells were treated with cytokines or hypoxia (0.1% oxygen), this was for 6 hr. Lipopolysaccharide (LPS) (from E.coli 026:B6; Sigma), gamma Interferon (IFN) and Interleukin-10 (IL-10) were all used at a final concentration of 100 ng/ml. The effect of gamma Interferon and Lipopolysaccharide is to activate macrophages, with a Th1 biased phenotype, as found in many inflammatory conditions. Interleukin-10 is a Th2 cytokine and de-activates macrophages, and suppresses their effector functions.

B1: p2L23 (nucleic acid, listed as Homo Sapiens)
DNA: GGAGCTGTTTACCCCCACTCTAATAGGGGTTCAATATAAAAAGCCGGCAGAGAGCTGTCCAAGTCAGACGCGCCTCTGCATCTGCGCCAGGCGAACGGGTCCTGCGCCTCCTGCAGTCCCAGCTCTCCACCACCGCCGCGTGCGCCTGCAGACGCTCCGCTCGCTGCCTTCTCTCCTGGCAGGCGCTGCCTTTTCTCCCCGTTAAAGGGCACTTGGGCTGAAGGATCGCTTTGAGATCTGAGGAACCCGCAGCGCTTTGAGGGACCTGAAGCTGTTTTTCTTCGTTTTCCTTTGGGTTCAGTTTGAACGGGAGGTTTTTGATCCCTTTTTTTCAGAATGGATTATTTGCTCATGATTTTCTCTCTGCTGTTTGTGGCTTGCCAAGGAGCTCCAGAAACAGCAGTCTTAGGCGCTGAGCTCAGCGCGGTGGGTGAGAACGGCGGGGAGAAACCCACTCCCAGTCCACCCTGGCGGCTCCGCCGGTCCAAGCGCTGCTCCTGCTCGTCCCTGATGGATAAAGAGTGTGTCTACTTCTGCCACCTGGACATCATTTGGGTCAACACTCCCGAGCACGTTGTTCCGTATGGACTTGGAAGCCCTAGGTCCAAGAGAGCCTTGGAGAATTTACTTCCCACAAAGGCAACAGACCGTGAGAATAGATGCCAATGTGCTAGCCAAAAAGACAAGAAGTGCTGGAATTTTTGCCAAGCAGGAAAAGAACTCAGGGCTGAAGACATTATGGAGAAAGACTGGAATAATCATAAGAAAGGAAAAGACTGTTCCAAGCTTGGGAAAAAGTGTATTTATCAGCAGTTAGTGAGAGGAAGAAAAATCAGAAGAAGTTCAGAGGAACACCTAAGACAAACCAGGTCGGAGACCATGAGAAACAGCGTCAAATCATCTTTTCATGATCCCAAGCTGAAAGGCAAGCCCTCCAGAGAGCGTTATGTGACCCACAACCGAGCACATTGGTGACAGACTTCGGGGCCTGTCTGAAGCCATAGCCTCCACGGAGAGCCCTGTGGCCGACTCTGCACTCTCCACCCTGGCTGGGATCAGAGCAGGAGCATCCTCTGCTGGTTCCTGACTGGCAAAGGACCAGCGTCCTCGTTCAAAACATTCCAAGAAAGGTTAAGGAGTTCCCCCAACCATCTTCACTGGCTTCCATCAGTGGTAACTGCTTTGGTCTCTTCTTTCATCTGGGGATGACAATGGACCTCTCAGCAGAAACACACAGTCACATTCGAATTC
#1 no cytokines/normoxia
  mRNA EXPRESSION (experimental condition) #1: 1.02
#2 no cytokines/hypoxia
  mRNA EXPRESSION (experimental condition) #2: 0.62
#3 IL-10/normoxia
  mRNA EXPRESSION (experimental condition) #3: 0.74
#4 IL-10/hypoxia
  mRNA EXPRESSION (experimental condition) #4: 0.50
#5 LPS/IFN/normoxia
  mRNA EXPRESSION (experimental condition) #5: 11.4
#6 LPS/IFN/hypoxia
  mRNA EXPRESSION (experimental condition) #6: 10.1
